Assay results from patent US20090005257A1.

Tests used:
[1] = molecular target: protein A (UniProt P38507); experiment: phage ELISA on protein A, heated 80 C against unheated, three data points
[2] = molecular target: protein A (UniProt P38507); experiment: phage ELISA screen on protein A, heated 80 C against unheated (Section 4); mean of clones with this mutation

Sequence of DP47 F100nV (VH): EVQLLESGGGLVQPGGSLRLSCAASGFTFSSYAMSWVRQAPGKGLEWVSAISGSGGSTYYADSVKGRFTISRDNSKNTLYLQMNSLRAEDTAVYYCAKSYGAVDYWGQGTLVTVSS

Substance	Refoldability on phage (protein A binding retained after heating) [1]	mean % refolding (pA-ELISA) [2]
DP47 F100nV	2%	–
DP47 F100nV/Y102S	2%	–
DP47-F27C	–	56%
DP47-G54P	–	28%
